Data reported in patent US7494767B2, “Assay for TSG101 as inhibitors of HIV production” (priority 2001, dated 2009).

Legend:
[1] = target: T1, Tsg101 capture by Pr55^Gag (Homo sapiens, UniProt Q99816); assay: Immune capture competition assay: Tsg101 capture by Pr55^Gag on antibody-coated Protein A beads; format: binding, mouse or human; details: 5-fold molar excess of peptide
T1 construct: anneals at the position corresponding to amino acid 10 in the protein, and 3′ primer no; 30, which anneals to the C-terminus; made in house; host or cells: Tsg101: rabbit reticulocyte lysate (TNT T7 system); Pr55Gag: E. coli BL21-DE3
T1 sequence (Q99816 11-390): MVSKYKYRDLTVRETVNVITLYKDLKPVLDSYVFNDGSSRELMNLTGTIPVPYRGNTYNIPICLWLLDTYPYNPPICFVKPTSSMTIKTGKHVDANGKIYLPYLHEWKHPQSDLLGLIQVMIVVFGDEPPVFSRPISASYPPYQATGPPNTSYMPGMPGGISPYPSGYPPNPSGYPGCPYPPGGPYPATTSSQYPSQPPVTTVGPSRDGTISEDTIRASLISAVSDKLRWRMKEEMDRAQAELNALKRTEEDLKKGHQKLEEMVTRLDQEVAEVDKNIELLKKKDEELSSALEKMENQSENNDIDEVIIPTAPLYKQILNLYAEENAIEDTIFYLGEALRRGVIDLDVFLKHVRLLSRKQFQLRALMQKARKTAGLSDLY
Description: Protein detection. Proteins were separated by electrophoresis through a 12.5% SDS polyacrylamide gel. For detection of radiolabeled Tsg101 after electrophoresis, gels were fixed, incubated for 30 min in EN^3HANCE (DuPont NEN) autoradiography enhancer for gel fluorography and dried. Radioactive bands were visualized using imaging film (BioMax, Kodak). Gels with non-radioactive samples were transferred to nitrocellulose and analyzed by Western blotting. The following antibodies, as specified in the text, were used: anti-capsid (CA)1 and -CA2 (rabbit polyclonal antibodies raised against native and denatured forms of the CA protein, respectively; Ebbets-Reed, D., 1996, in Molecular Microbiology, State University of New York at Stony Brook, Stony Brook, N.Y., pp. 209; Ehrlich, L. S., Agresta, B. E. & Carter, C. A., 1992, J. Virol. 66,4874-4883); anti-CA3 (mouse monoclonal antibody, NEN-DuPont); anti-p6 (rabbit polyclonal against the C-terminal 16 amino acids, S. Campbell, NCI-FCRDC); anti-nucleocapsid (NC, goat polyclonal, A. Rein, NCI-FCRDC); anti-T7 (Novagen); anti-Tsg1011 (monoclonal, Santa Cruz); antiTsg1012 (rabbit polyclonal, obtained from S. Cohen, Stanford U.). […]
Tsg101 binds to Pr55^Gag in vitro. […] The protein was detected consistently as a doublet, perhaps due to internal initiation at Met10. The protein was also sometimes detected as a doublet in cytoplasmic extracts. […]

[2] = tested on: HIV-1 particles; assay: Release of HIV-1 virus-like particles from transfected COS-1 cells (Western blot of particles, anti-CA); format: cell-based; details: 5 μM pa in the absence of pIND-h-Tsg101-FLAG

## LIAPP
[1]
  reduction in Tsg101 capture by Pr55^Gag: no change was detected

## CC(C)CC[C@@H](O)[C@](C)(O)[C@H]1CC[C@@]2(O)C3=CC(=O)[C@@H]4C[C@@H](O)[C@@H](O)C[C@]4(C)[C@H]3CC[C@]12C [pa, reference compound]
[2]
  inhibitory effect on virus release: no inhibitory effect
